Measurements taken from the supplement of paper PMC12042874.
± gives the uncertainty stated by the source.

Experiment: amyloid nucleation score (Sup35N fusion, yeast selection) (log enrichment); library NNK1; higher = more nucleation; inactive = no reads after selection
Outline: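 The nucleation score equals the log enrichment of output over input reads from DiMSum, centred on the mode score of non-aggregating sequences. It was computed only for sequences with 100 or more input reads. The reads came from Illumina sequencing of plasmid inserts from psi-negative yeast expressing Sup35N fused to peptides of 20 random codons, induced with 100 μM copper sulfate for 24 hours and grown 7 days at 30°C without adenine and uracil.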
QLVYCCLLILIYTYEC gave an amyloid nucleation score of 0.499 ± 0.42. In the case of QMCLFKVNLVVTISI, the amyloid nucleation score is reported as “inactive”. Work on QMKAVLRLRINICCPQVRGT yielded an amyloid nucleation score of 4.66 ± 0.1. QMVYRYDER gave an amyloid nucleation score of -1.43 ± 1.6. For QNFWALGPIRRIYFVNVITN, the amyloid nucleation score was 7.315 ± 0.06. For QNPRIKFIQHVPIYNEGTLP, the amyloid nucleation score was 1.17 ± 0.43. In the case of QNWMPRHLTITLNDIRLYL, the amyloid nucleation score is reported as 4.95 ± 0.12. In the case of QPKFLVCFA, the amyloid nucleation score is reported as 0.101 ± 0.6. For QRCTIYRSSI, the amyloid nucleation score was “inactive”. In the case of QRERMRGFKFDRLFCIRVWW, the amyloid nucleation score is reported as -1.03 ± 0.44. QRFLHVESYESCLVSVSNLS gave an amyloid nucleation score of -0.752 ± 1.9. QRKPVCSGLTLFHMLNRVTK showed an amyloid nucleation score of -0.484 ± 0.65. QRMCVYLGTLPLSLLGRMWG showed an amyloid nucleation score of 0.175 ± 1.1. In the case of QRRHMCCVNAFFRDMRKGIG, the amyloid nucleation score is reported as 1.63 ± 0.43. Substance QRVVKVWWDTKPYVSMGSFL has an amyloid nucleation score of 0.563 ± 0.44. For QSADLMNSMTLICGWSVQIA, the amyloid nucleation score was 4.43 ± 0.12. With QSAYRSR the amyloid nucleation score was “inactive”. QSFSLS showed an amyloid nucleation score of 0.609 ± 0.33. Work on QSGAVTSSVRPQRVEVVRVV yielded an amyloid nucleation score of -0.904 ± 0.88. Substance QSGGVRVTNWRGNVTAT has an amyloid nucleation score of 0.043 ± 0.39. Work on QSTNLAFLRICECSE yielded an amyloid nucleation score of 3.8 ± 0.071. With QSTVTCRFMCVVWGSNW the amyloid nucleation score was -0.078 ± 0.47. Work on QSVGMWSY yielded an amyloid nucleation score of -0.256 ± 0.88. QSVKTQGVVCAVSIYFGGCS showed an amyloid nucleation score of 2.39 ± 0.23. For QTFTYKCFIHYFMRMWLVQI, the amyloid nucleation score was -0.005 ± 0.75. With QTGAAFMVAASRGKKTGVLR the amyloid nucleation score was 0.327 ± 0.28. Work on QTGKRYGTFLGYDGLEGRPD yielded an amyloid nucleation score of -0.502 ± 0.55. QTKRSCCSFFVNL showed an amyloid nucleation score of 6.603 ± 0.05. Work on QTSDTNWGVLFTVYFLCQDM yielded an amyloid nucleation score of -0.059 ± 0.67. In the case of QTVGGRFSSFY, the amyloid nucleation score is reported as “inactive”. QVCRARMHMEVGAMGTFHAS gave an amyloid nucleation score of 0.521 ± 0.41. Substance QVYYVCGYTSDKLLKNSYNN has an amyloid nucleation score of -0.125 ± 0.45. In the case of QWCVKESAFIYEYRLSGDCL, the amyloid nucleation score is reported as -0.584 ± 0.74. For QWGNLFLWKTIAESLLRD, the amyloid nucleation score was 1.47 ± 0.67. In the case of QWLYYVKEPIAYSLL, the amyloid nucleation score is reported as 0.46 ± 0.24. QYHYNGGLPRQFK gave an amyloid nucleation score of -0.534 ± 0.54. Work on QYMREEAGVALNGETHFFSL yielded an amyloid nucleation score of 0.567 ± 0.39. In the case of QYPLMK, the amyloid nucleation score is reported as 0.319 ± 0.32. QYPRFHVTGTGRLCGSRMSY showed an amyloid nucleation score of -0.382 ± 0.4. With QYRHTQSYRLELKVHGDFKR the amyloid nucleation score was -0.171 ± 1.1. Work on QYVIQAYACTWCRCGKLQSG yielded an amyloid nucleation score of 7.693 ± 0.065. In the case of RAAALRRKRDD, the amyloid nucleation score is reported as 0.203 ± 0.42. RACDNMYHYRCLLRSTEHHQ gave an amyloid nucleation score of -0.185 ± 0.22. For RACVNSHQRMGGDGSLSMVL, the amyloid nucleation score was 2.48 ± 0.15. For RADIKAIMLNYMIFA, the amyloid nucleation score was “inactive”. RAFAFTW showed an amyloid nucleation score of 2.38 ± 0.14. RAGIFKEYCSFATVKYVKDN showed an amyloid nucleation score of -1.04 ± 0.39. Substance RAMVLCGGCTWPAREDNEKV has an amyloid nucleation score of 0.506 ± 0.33. RANQHRGYIFSILVTFCYST gave an amyloid nucleation score of -0.505 ± 0.51. Work on RAWASVLGSFGIGVSCCGA yielded an amyloid nucleation score of -0.85 ± 1.2. With RCCKQTSRVDMC the amyloid nucleation score was 0.156 ± 1.6. RCINRGNLAHGGGWCKCKAR showed an amyloid nucleation score of 0.743 ± 0.54. RCKGNGKNISCSPFQSREWY showed an amyloid nucleation score of 0.026 ± 0.33. For RCMFAYLRVMDCNGGNVYPV, the amyloid nucleation score was 0.409 ± 0.21. With RCMMQYKFTWGIVTYRKDLG the amyloid nucleation score was 0.658 ± 0.34. RCRIWEEIGPIGKGERSRGC gave an amyloid nucleation score of 0.405 ± 0.45. Substance RCSLIPGRLPRNRFVRPDYC has an amyloid nucleation score of -1.53 ± 1.3. With RDHCARYHARDGTEPYSGHR the amyloid nucleation score was “inactive”. RDIWMATYRWVRVYSLMWIG showed an amyloid nucleation score of 1.01 ± 0.48. Work on RDMMMRRWVVSKSEL yielded an amyloid nucleation score of 0.711 ± 0.72. In the case of RDPYMCSLVRAGSGSKGTI, the amyloid nucleation score is reported as 0.447 ± 0.56. RDSINLLDFGIVITGAKKWS gave an amyloid nucleation score of 0.218 ± 0.27. For RDSQMMNT, the amyloid nucleation score was 0.312 ± 0.37. Work on RDTVTSNSSVT yielded an amyloid nucleation score of 4.36 ± 0.095. Work on RDVECQLVSMHKGMWKLVEE yielded an amyloid nucleation score of -0.041 ± 0.28. Work on REANNPCRVNTKSIVVRLEV yielded an amyloid nucleation score of -0.787 ± 0.32. Work on REITCR yielded an amyloid nucleation score of -0.24 ± 0.26. With RERESQMYFNLFSENTY the amyloid nucleation score was -0.435 ± 0.51. Work on RERSIWFSFDGCRRRRRYGG yielded an amyloid nucleation score of 1.41 ± 0.78. Substance RERSYRSGDYRCYSIMWSAL has an amyloid nucleation score of -0.382 ± 0.23. Substance RESSAAVDTCTILKMTEKVG has an amyloid nucleation score of -0.131 ± 0.66. For RFFNHPMSFANMKLRSECTR, the amyloid nucleation score was -0.832 ± 0.94. In the case of RFFPDNNCMQCDATAEDTGL, the amyloid nucleation score is reported as -0.246 ± 1.4. For RFIGVQQMVCVTYNWFKVLG, the amyloid nucleation score was 1.16 ± 0.19. For RFLSMWSHCQLMF, the amyloid nucleation score was “inactive”. RFMCWVFTGCLGLSGNSSC gave an amyloid nucleation score of 1.95 ± 0.16. Work on RFNISIPD yielded an amyloid nucleation score of -1.01 ± 0.5. In the case of RFSKNE, the amyloid nucleation score is reported as 0.523 ± 0.87. With RFVLWYYDY the amyloid nucleation score was 3.12 ± 0.076. With RFVMRPFATVSTFSISVPAC the amyloid nucleation score was -0.638 ± 0.74. RFVQRKDSFFARI gave an amyloid nucleation score of 1.21 ± 0.66. Substance RGDGTRNRRCAIFSN has an amyloid nucleation score of -0.064 ± 0.99. For RGELVPHVVMYNLWKL, the amyloid nucleation score was 4.21 ± 0.082. Work on RGEVHSIWTPPLHKGQEMGI yielded an amyloid nucleation score of 0.048 ± 0.78. With RGFNVVHGGELRRMLMTEGD the amyloid nucleation score was 0.926 ± 0.43.
